Experimental data taken from US20210292396A1 (INTERNATIONAL AIDS VACCINE INITIATIVE, published 2021).

Legend:
Assay in all cases: cell-based or functional assay
[1] = target: HIV Env of isolate Ce1176_A3 (HIV)
[2] = target: HIV Env of isolate 62357_14_D3_4589 (HIV)
[3] = target: HIV Env of isolate 928-28 (HIV)
[4] = target: HIV Env of isolate TRJO4551.58 (HIV)
[5] = target: HIV Env of isolate CNE52 (HIV)
[6] = target: HIV Env of isolate 3301.v1.c24 (HIV)
[7] = target: HIV Env of isolate CAP210.2.00.E8 (HIV)
[8] = target: HIV Env of isolate CNE30 (HIV)
[9] = target: HIV Env of isolate 1054_07_TC4_1499 (HIV)
[10] = target: HIV Env of isolate CNE20 (HIV)
[11] = target: HIV Env of isolate CNE53 (HIV)
[12] = target: HIV Env of isolate Du172.17 (HIV)
[13] = target: HIV Env of isolate Du156.12 (HIV)
[14] = target: HIV Env of isolate T211-9 (HIV)
[15] = target: HIV Env of isolate QH0692.42 (HIV)
[16] = target: HIV Env of isolate CNE58 (HIV)
[17] = target: HIV Env of isolate T251-18 (HIV)
[18] = target: HIV Env of isolate 235-47 (HIV)
[19] = target: HIV Env of isolate T250-4 (HIV)
[20] = target: HIV Env of isolate WEAU_d15_410_5017 (HIV)
[21] = target: HIV Env of isolate CAP45.2.00.G3 (HIV)
[22] = target: HIV Env of isolate P0402_C2_11 (HIV)
[23] = target: HIV Env of isolate ZM109F.PB4 (HIV)
[24] = target: HIV Env of isolate BJOX009000.02.4 (HIV)
[25] = target: HIV Env of isolate 0330.v4.c3 (HIV)
[26] = target: HIV Env of isolate RHPA4259.7 (HIV)
[27] = target: HIV Env of isolate REJO4541.67 (HIV)
[28] = target: HIV Env of isolate 191084_B7-19 (HIV)
[29] = target: HIV Env of isolate 6240_08_TA5_4622 (HIV)
[30] = target: HIV Env of isolate ZM214M.PL15 (HIV)
[31] = target: HIV Env of isolate ZM247v1(Rev-) (HIV)
[32] = target: HIV Env of isolate PVO.4 (HIV)
[33] = target: HIV Env of isolate HIV-16845-2.22 (HIV)
[34] = target: HIV Env of isolate 1056_10_TA11_1826 (HIV)
[35] = target: HIV Env of isolate 0260.v5.c36 (HIV)
[36] = target: HIV Env of isolate A07412M1.vrc12 (HIV)
[37] = target: HIV Env of isolate SC422661.8 (HIV)
[38] = target: HIV Env of isolate 7030102001E5(Rev-) (HIV)
[39] = target: HIV Env of isolate 3817.v2.c59 (HIV)
[40] = target: HIV Env of isolate P1981_C5_3 (HIV)
[41] = target: HIV Env of isolate CAAN5342.A2 (HIV)
[42] = target: HIV Env of isolate 6244_13_B5_4576 (HIV)
[43] = target: HIV Env of isolate AC10.0.29 (HIV)
[44] = target: HIV Env of isolate Q23.17 (HIV)
[45] = target: HIV Env of isolate 6480.v4.c25 (HIV)

B1: ePGT121.15.H6.L1 (antibody, V domains shown)
VH: QMQLQESGPGLVKPGETLSLTCSVSGASISSSYWSWLRETPGKGLEWIGYTHHSGDTNYAPSLKSRVHLGLHPSKNQVSLSLTSVTAADTAVYYCARTLHGRRIYGVVAFNEFFTYFYWEVWGKGTQVTVSS
VL: SDISVAPGETVRISCGGESIGSRAVQWYQHRAGQAPKLIIYNNQDRPPGIPERFSGSPDIDFGTTATLTITNVEAGDEATYYCHIWDSRRPTNWVFGGGTTLTVL
In the case of B1, the “neutralization (Table 6 value)” value [1] is reported as 0.00302, the “neutralization (Table 6 value)” value [2] is reported as 0.0132 and the “neutralization (Table 6 value)” value [3] is reported as 0.0852. For the same binder, the “neutralization (Table 6 value)” value [4] was 0.00673, the “neutralization (Table 6 value)” value [5] was 0.0784 and the “neutralization (Table 6 value)” value [6] was 0.00134. The “neutralization (Table 6 value)” value [7] was 0.0311, the “neutralization (Table 6 value)” value [8] was 0.00289 and the “neutralization (Table 6 value)” value [9] was 0.00129. The “neutralization (Table 6 value)” value [10] was 0.00133, the “neutralization (Table 6 value)” value [11] was 0.00306 and the “neutralization (Table 6 value)” value [12] was 0.00203. The “neutralization (Table 6 value)” value [13] was 0.000917, the “neutralization (Table 6 value)” value [14] was 0.00751 and the “neutralization (Table 6 value)” value [15] was 0.0126. The “neutralization (Table 6 value)” value [16] was 0.0145, the “neutralization (Table 6 value)” value [17] was 0.0274 and the “neutralization (Table 6 value)” value [18] was 0.00363. For the same binder, the “neutralization (Table 6 value)” value [19] was 0.000789, the “neutralization (Table 6 value)” value [20] was 0.00205 and the “neutralization (Table 6 value)” value [21] was 1.8e-05. The “neutralization (Table 6 value)” value [22] was 0.0015, the “neutralization (Table 6 value)” value [23] was 0.742 and the “neutralization (Table 6 value)” value [24] was 0.0166. For the same binder, the “neutralization (Table 6 value)” value [25] was 0.00764, the “neutralization (Table 6 value)” value [26] was 0.00225 and the “neutralization (Table 6 value)” value [27] was 8e-06. The “neutralization (Table 6 value)” value [28] was 0.00312, the “neutralization (Table 6 value)” value [29] was 0.00465 and the “neutralization (Table 6 value)” value [30] was 0.00993. The “neutralization (Table 6 value)” value [31] was 0.00191, the “neutralization (Table 6 value)” value [32] was 0.00517 and the “neutralization (Table 6 value)” value [33] was 0.0283. For the same binder, the “neutralization (Table 6 value)” value [34] was 0.00186, the “neutralization (Table 6 value)” value [35] was 0.00217 and the “neutralization (Table 6 value)” value [36] was 0.00204. The “neutralization (Table 6 value)” value [37] was 0.00285, the “neutralization (Table 6 value)” value [38] was 0.00241 and the “neutralization (Table 6 value)” value [39] was 0.00361. The “neutralization (Table 6 value)” value [40] was 0.000543, the “neutralization (Table 6 value)” value [41] was 0.00221 and the “neutralization (Table 6 value)” value [42] was 0.0055. For the same binder, the “neutralization (Table 6 value)” value [43] was 0.00278, the “neutralization (Table 6 value)” value [44] was 0.00146 and the “neutralization (Table 6 value)” value [45] was 0.000826.
